In the Immune Epitope Database (IEDB):

Experiments:
HLA-A*68:02 = assay: IEDB peptide-MHC binding, purified MHC/competitive/radioactivity; filed as Kd, often an IC50 or EC50 that approximates it; ≥ and ≤ were set here for values at or beyond the usual limits of such assays
HLA-A*01:01 = assay: as above; conditions: source organism: Dengue virus 2 Jamaica/1409/1983
HLA-A*02:17 = assay: as above
HLA-A*02:06 = assay: as above
HLA-A*02:01 [1] = assay: as above
HLA-A*03:01 = assay: IEDB peptide-MHC binding, purified MHC/competitive/fluorescence; filed as Kd, often an IC50 or EC50 that approximates it; ≥ and ≤ were set here for values at or beyond the usual limits of such assays
HLA-B*54:01 = assay: IEDB peptide-MHC binding, purified MHC/competitive/radioactivity; filed as Kd, often an IC50 or EC50 that approximates it; ≥ and ≤ were set here for values at or beyond the usual limits of such assays
HLA-B*07:02 = assay: as above
HLA-B*35:01 = assay: as above
HLA-B*51:01 = assay: as above
HLA-B*53:01 = assay: as above
HLA-A*02:03 = assay: as above
HLA-A*02:12 = assay: IEDB peptide-MHC binding, purified MHC/direct/fluorescence; filed as Kd, often an IC50 or EC50 that approximates it; ≥ and ≤ were set here for values at or beyond the usual limits of such assays; conditions: source organism: Rift Valley fever virus
HLA-A*69:01 = assay: as above; conditions: source organism: Rift Valley fever virus
HLA-B*15:01 = assay: as above
HLA-A*02:01 [2] = assay: as above; conditions: source organism: Rift Valley fever virus
HLA-B*46:01 = assay: as above; conditions: source organism: Lassa virus Josiah
[3] = source organism: Dengue virus 2 Jamaica/1409/1983
[4] = source organism: Dengue virus 3 Sri Lanka/1266/2000
[5] = source organism: Mammarenavirus lassaense
[6] = source organism: Vaccinia virus WR
[7] = source organism: Dengue virus 3 Martinique/1243/1999
[8] = source organism: Dengue virus 4 Philippines/H241/1956
[9] = source organism: Dengue virus 3 China/80-2/1980

For LTAALLLLV, the Kd (HLA-A*68:02; [3]) was 5.36 nM, the Kd (HLA-A*01:01) was at least 42900 nM and the Kd (HLA-A*02:17; [3]) was at least 41700 nM. For the same sequence, the Kd (HLA-A*02:06; [3]) was 3.73 nM and the Kd (HLA-A*02:01 [1]; [3]) was 5760 nM.

With HMIAGVFFT the Kd (HLA-A*02:17; [4]) was 1400 nM and the Kd (HLA-A*02:01 [1]; [4]) was 9.01 nM.

ALALFDLLK gave a Kd (HLA-A*03:01; source organism: Escherichia coli O139:H28 str. E24377A) of 56.7 nM.

For FPAIFSAEVL, the Kd (HLA-B*54:01; [5]) was 523 nM, the Kd (HLA-B*07:02; [5]) was 1380 nM and the Kd (HLA-B*35:01; [5]) was 55.7 nM. For the same sequence, the Kd (HLA-B*51:01; [5]) was 9910 nM and the Kd (HLA-B*53:01; [5]) was 332 nM.

TPVEIVVDM was tested, and the Kd (HLA-B*54:01; [5]) was at least 78100 nM, the Kd (HLA-B*07:02; [5]) was 16700 nM and the Kd (HLA-B*35:01; [5]) was 4.6 nM. It also gave a Kd (HLA-B*51:01; [5]) of 9820 nM and a Kd (HLA-B*53:01; [5]) of 158 nM.

Sequence LPSLIKTILA has a Kd (HLA-B*54:01; [6]) of 1.54 nM, a Kd (HLA-B*07:02; [6]) of 1520 nM and a Kd (HLA-B*35:01; [6]) of 2230 nM. It also gave a Kd (HLA-B*51:01; [6]) of 11000 nM and a Kd (HLA-B*53:01; [6]) of 1960 nM.

For MIAGVFFTFV, the Kd (HLA-A*68:02; [7]) was 2.85 nM, the Kd (HLA-A*02:17; [4]) was 83 nM and the Kd (HLA-A*02:03; [7]) was at most 0.1 nM. It also gave a Kd (HLA-A*02:06; [7]) of 1.02 nM and a Kd (HLA-A*02:01 [1]; [4]) of 12.6 nM.

LLLLTLLATV gave a Kd (HLA-A*02:17; [3]) of 54.4 nM, a Kd (HLA-A*02:03; [3]) of 1.37 nM and a Kd (HLA-A*02:06; [3]) of 23.8 nM. For the same sequence, the Kd (HLA-A*02:01 [1]; [3]) was 64.6 nM.

In the case of LLANILSEH, the Kd (HLA-A*03:01; source organism: Vibrio cholerae 2740-80) is reported as 525 nM.

Work on TAAAWYLWEV yielded a Kd (HLA-A*68:02; [3]) of 4.09 nM, a Kd (HLA-A*02:17; [3]) of 1020 nM and a Kd (HLA-A*02:06; [3]) of 1.28 nM. For the same sequence, the Kd (HLA-A*02:01 [1]; [3]) was 10.3 nM.

For DPDHYKDYAF, the Kd (HLA-B*54:01; [6]) was 17300 nM, the Kd (HLA-B*07:02; [6]) was at least 69600 nM and the Kd (HLA-B*35:01; [6]) was 894 nM. The Kd (HLA-B*51:01; [6]) was at least 69600 nM and the Kd (HLA-B*53:01; [6]) was 3440 nM.

In the case of VPDIKLDAVL, the Kd (HLA-B*54:01; [6]) is reported as 1620 nM, the Kd (HLA-B*07:02; [6]) is reported as 4.94 nM and the Kd (HLA-B*35:01; [6]) is reported as 140 nM. For the same sequence, the Kd (HLA-B*51:01; [6]) was 335 nM and the Kd (HLA-B*53:01; [6]) was 134 nM.

Sequence YLKEACNHA has a Kd (HLA-A*02:12) of 52 nM, a Kd (HLA-A*69:01) of 473 nM and a Kd (HLA-B*15:01; source organism: Rift Valley fever virus) of 652 nM. It also gave a Kd (HLA-A*02:01 [2]) of 243 nM.

For FPYVMGDVEL, the Kd (HLA-B*54:01; [5]) was 487 nM, the Kd (HLA-B*07:02; [5]) was 930 nM and the Kd (HLA-B*35:01; [5]) was 11.1 nM. For the same sequence, the Kd (HLA-B*51:01; [5]) was 304 nM and the Kd (HLA-B*53:01; [5]) was 46.9 nM.

In the case of ILIGFLVLWI, the Kd (HLA-A*02:17; [8]) is reported as 2990 nM and the Kd (HLA-A*02:01 [1]; [8]) is reported as 97.1 nM.

In the case of VILAGPMPV, the Kd (HLA-A*02:17; [3]) is reported as 1360 nM.

GLVECNNHY showed a Kd (HLA-B*46:01) of at least 20000 nM and a Kd (HLA-B*15:01; source organism: Lassa virus Josiah) of 182 nM.

For KPEVRIPVDL, the Kd (HLA-B*54:01; [6]) was 14300 nM, the Kd (HLA-B*07:02; [6]) was 235 nM and the Kd (HLA-B*35:01; [6]) was at least 69900 nM. For the same sequence, the Kd (HLA-B*51:01; [6]) was at least 69600 nM and the Kd (HLA-B*53:01; [6]) was at least 42400 nM.

QVMLLVLCAV showed a Kd (HLA-A*02:17; [9]) of at least 35100 nM, a Kd (HLA-A*02:03; [7]) of 604 nM and a Kd (HLA-A*02:06; [7]) of 11.8 nM. The Kd (HLA-A*02:01 [1]; [9]) was 146 nM.

With SIILEFFLIV the Kd (HLA-A*02:17; [3]) was 4020 nM, the Kd (HLA-A*02:06; [3]) was 43.7 nM and the Kd (HLA-A*02:01 [1]; [3]) was 29.9 nM.
